The values that follow come from patent publication US20260158147A1.

The target in test [1] is aBeta (UniProt P05067). Briefly: ELISA; commercial.
Test [2] has as its target aBeta (UniProt P05067). Put plainly: ELISA.

Consider Lecanemab (commercial), for which the EC50 with aBeta [1] came to 0.115 nM.

Regarding Lecanemab (unshuttled), in the test with aBeta [2], the EC50 turned out to be 0.105 nM.
